Results taken from the supplement of paper PMC10567573.

B1: RAD54B (parent)
chain: YVQEKRDGLKRRQQLEEELLRAKI
B2: USP39 (parent)
chain: FQGSMRIFTKKLPHPDLPAEEKEQ
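Note: lentivirally expressed fusions sorted by FACS into six bins by GFP to DsRed ratio, PSI derived from sequencing read proportions per bin multiplied by bin number.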

Variants of: B1
Assay: protein stability index of a GFP-peptide fusion (GPS, HEK-293T) (PSI 1-6); higher = more stable
Conditions: c terminus: a fixed tail appended
YVQEKRDGLKRRQQLEEELLRANI [K23N] showed a protein stability index of 2.28. With YVQEKRDGLKRRQQLEEELLRATI [K23T] the protein stability index was 2.08. In the case of YVQEKRDGLKRRQQLEEELLRAII [K23I], the protein stability index is reported as 1.73. YVQEKRDGLKRRQQLEEELLRAWI [K23W] showed a protein stability index of 1.59. For YVQEKRDGLKRRQQLEEELLRAPI [K23P], the protein stability index was 2.63. With YVQEKRDGLKRRQQLEEELLRASI [K23S] the protein stability index was 2.36. Work on YVQEKRDGLKRRQQLEEELLRAVI [K23V] yielded a protein stability index of 2.25. Variant YVQEKRDGLKRRQQLEEELLRALI [K23L] has a protein stability index of 3.08. Variant YVQEKRDGLKRRQQLEEELLRAGI [K23G] has a protein stability index of 1.86. Work on YVQEKRDGLKRRQQLEEELLRAHI [K23H] yielded a protein stability index of 2.95. Work on YVQEKRDGLKRRQQLEEELLRARI [K23R] yielded a protein stability index of 2.45. Variant YVQEKRDGLKRRQQLEEELLRAQI [K23Q] has a protein stability index of 1.59. Work on YVQEKRDGLKRRQQLEEELLRAMI [K23M] yielded a protein stability index of 2.62. In the case of YVQEKRDGLKRRQQLEEELLRAYI [K23Y], the protein stability index is reported as 1.49. With YVQEKRDGLKRRQQLEEELLRAKG [I24G] the protein stability index was 2.08. Work on YVQEKRDGLKRRQQLEEELLRAKN [I24N] yielded a protein stability index of 2.18. In the case of YVQEKRDGLKRRQQLEEELLRAKH [I24H], the protein stability index is reported as 2.38. Variant YVQEKRDGLKRRQQLEEELLRAKP [I24P] has a protein stability index of 2.45. Work on YVQEKRDGLKRRQQLEEELLRAKS [I24S] yielded a protein stability index of 1.93. YVQEKRDGLKRRQQLEEELLRAKK [I24K] gave a protein stability index of 1.87. For YVQEKRDGLKRRQQLEEELLRAKY [I24Y], the protein stability index was 1.74. For YVQEKRDGLKRRQQLEEELLRAKF [I24F], the protein stability index was 1.98. Variant YVQEKRDGLKRRQQLEEELLRAKQ [I24Q] has a protein stability index of 2.22. YVQEKRDGLKRRQQLEEELLRAKE [I24E] gave a protein stability index of 2.17. YVQEKRDGLKRRQQLEEELLRAKT [I24T] showed a protein stability index of 1.58. With YVQEKRDGLKRRQQLEEELLRAKC [I24C] the protein stability index was 1.75. Work on YVQEKRDGLKRRQQLEEELLRAKV [I24V] yielded a protein stability index of 1.92. For YVQEKRDGLKRRQQLEEELLRAKW [I24W], the protein stability index was 2.28. Variant YVQEKRDGLKRRQQLEEELLRAKL [I24L] has a protein stability index of 1.65. Variant YVQEKRDGLKRRQQLEEELLRAKM [I24M] has a protein stability index of 2.05. YVQEKRDGLKRRQQLEEELLRAKR [I24R] gave a protein stability index of 1.68. YVQEKRDGLKRRQQLEEELLRAKA [I24A] showed a protein stability index of 1.98. YVQEKRDGLKRRQQLEEELLRAKD [I24D] gave a protein stability index of 2.73.

Variants of: B2
Assay: as above
Conditions: c terminus: a fixed tail appended
With IQGSMRIFTKKLPHPDLPAEEKEQ [F1I] the protein stability index was 4.17. Variant NQGSMRIFTKKLPHPDLPAEEKEQ [F1N] has a protein stability index of 5.22. Work on RQGSMRIFTKKLPHPDLPAEEKEQ [F1R] yielded a protein stability index of 4.95. For DQGSMRIFTKKLPHPDLPAEEKEQ [F1D], the protein stability index was 5.37. EQGSMRIFTKKLPHPDLPAEEKEQ [F1E] gave a protein stability index of 5.48. In the case of YQGSMRIFTKKLPHPDLPAEEKEQ [F1Y], the protein stability index is reported as 2.11. In the case of KQGSMRIFTKKLPHPDLPAEEKEQ [F1K], the protein stability index is reported as 4.9. SQGSMRIFTKKLPHPDLPAEEKEQ [F1S] gave a protein stability index of 5.04. HQGSMRIFTKKLPHPDLPAEEKEQ [F1H] showed a protein stability index of 4.53. Work on MQGSMRIFTKKLPHPDLPAEEKEQ [F1M] yielded a protein stability index of 4.19. In the case of PQGSMRIFTKKLPHPDLPAEEKEQ [F1P], the protein stability index is reported as 4.83. Work on GQGSMRIFTKKLPHPDLPAEEKEQ [F1G] yielded a protein stability index of 4.66. Variant AQGSMRIFTKKLPHPDLPAEEKEQ [F1A] has a protein stability index of 5.07. For QQGSMRIFTKKLPHPDLPAEEKEQ [F1Q], the protein stability index was 4.89. Work on CQGSMRIFTKKLPHPDLPAEEKEQ [F1C] yielded a protein stability index of 4.82. WQGSMRIFTKKLPHPDLPAEEKEQ [F1W] showed a protein stability index of 4.78. In the case of TQGSMRIFTKKLPHPDLPAEEKEQ [F1T], the protein stability index is reported as 4.86. In the case of VQGSMRIFTKKLPHPDLPAEEKEQ [F1V], the protein stability index is reported as 4.52. Work on LQGSMRIFTKKLPHPDLPAEEKEQ [F1L] yielded a protein stability index of 4.29. For FQDSMRIFTKKLPHPDLPAEEKEQ [G3D], the protein stability index was 1.61. With FQTSMRIFTKKLPHPDLPAEEKEQ [G3T] the protein stability index was 3. Work on FQQSMRIFTKKLPHPDLPAEEKEQ [G3Q] yielded a protein stability index of 3.51. In the case of FQASMRIFTKKLPHPDLPAEEKEQ [G3A], the protein stability index is reported as 2.61. Variant FQESMRIFTKKLPHPDLPAEEKEQ [G3E] has a protein stability index of 2.17. In the case of FQVSMRIFTKKLPHPDLPAEEKEQ [G3V], the protein stability index is reported as 2.01. Work on FQFSMRIFTKKLPHPDLPAEEKEQ [G3F] yielded a protein stability index of 1.68. For FQWSMRIFTKKLPHPDLPAEEKEQ [G3W], the protein stability index was 1.85. FQKSMRIFTKKLPHPDLPAEEKEQ [G3K] gave a protein stability index of 3.37. Variant FQISMRIFTKKLPHPDLPAEEKEQ [G3I] has a protein stability index of 2.07. FQLSMRIFTKKLPHPDLPAEEKEQ [G3L] showed a protein stability index of 2.23. With FQYSMRIFTKKLPHPDLPAEEKEQ [G3Y] the protein stability index was 2.57. Variant FQSSMRIFTKKLPHPDLPAEEKEQ [G3S] has a protein stability index of 2.31. FQNSMRIFTKKLPHPDLPAEEKEQ [G3N] showed a protein stability index of 2.2. With FQMSMRIFTKKLPHPDLPAEEKEQ [G3M] the protein stability index was 2.67. FQCSMRIFTKKLPHPDLPAEEKEQ [G3C] showed a protein stability index of 1.86. FQHSMRIFTKKLPHPDLPAEEKEQ [G3H] showed a protein stability index of 2.54. FQPSMRIFTKKLPHPDLPAEEKEQ [G3P] gave a protein stability index of 2.53. For FQRSMRIFTKKLPHPDLPAEEKEQ [G3R], the protein stability index was 3.64. FKGSMRIFTKKLPHPDLPAEEKEQ [Q2K] gave a protein stability index of 4.16. FHGSMRIFTKKLPHPDLPAEEKEQ [Q2H] gave a protein stability index of 3.58. FWGSMRIFTKKLPHPDLPAEEKEQ [Q2W] gave a protein stability index of 2.82. Variant FYGSMRIFTKKLPHPDLPAEEKEQ [Q2Y] has a protein stability index of 2.92. FLGSMRIFTKKLPHPDLPAEEKEQ [Q2L] showed a protein stability index of 2.73. For FFGSMRIFTKKLPHPDLPAEEKEQ [Q2F], the protein stability index was 2.99. In the case of FSGSMRIFTKKLPHPDLPAEEKEQ [Q2S], the protein stability index is reported as 2.7. For FEGSMRIFTKKLPHPDLPAEEKEQ [Q2E], the protein stability index was 4.12. In the case of FIGSMRIFTKKLPHPDLPAEEKEQ [Q2I], the protein stability index is reported as 1.78. With FMGSMRIFTKKLPHPDLPAEEKEQ [Q2M] the protein stability index was 3.46. FNGSMRIFTKKLPHPDLPAEEKEQ [Q2N] showed a protein stability index of 2.85. With FRGSMRIFTKKLPHPDLPAEEKEQ [Q2R] the protein stability index was 3.89. Variant FPGSMRIFTKKLPHPDLPAEEKEQ [Q2P] has a protein stability index of 1.75. Variant FTGSMRIFTKKLPHPDLPAEEKEQ [Q2T] has a protein stability index of 2.2. Work on FDGSMRIFTKKLPHPDLPAEEKEQ [Q2D] yielded a protein stability index of 4.49. Variant FCGSMRIFTKKLPHPDLPAEEKEQ [Q2C] has a protein stability index of 3.34. Work on FGGSMRIFTKKLPHPDLPAEEKEQ [Q2G] yielded a protein stability index of 3.26. FAGSMRIFTKKLPHPDLPAEEKEQ [Q2A] gave a protein stability index of 2.29. Work on FQGSMRIFAKKLPHPDLPAEEKEQ [T9A] yielded a protein stability index of 2.04. In the case of FQGSMRIFHKKLPHPDLPAEEKEQ [T9H], the protein stability index is reported as 2. With FQGSMRIFFKKLPHPDLPAEEKEQ [T9F] the protein stability index was 1.89. In the case of FQGSMRIFEKKLPHPDLPAEEKEQ [T9E], the protein stability index is reported as 3.07. In the case of FQGSMRIFCKKLPHPDLPAEEKEQ [T9C], the protein stability index is reported as 1.69.
